The values that follow are results of earlier work, collected in article PMC3134397.

The target of one data set is RAE-1γ (Mus musculus) (UniProt O08604). The experiment in a line: AUC.
The next data set has as its target RAE-1β (Mus musculus) (UniProt O08603). The data set can be described thus: AUC.
A further data set addresses RAE-1δ (Mus musculus) (UniProt Q9JI58). The experiment in a line: AUC.
Data set [1] concerns the target UL18 (Human betaherpesvirus 5) (UniProt P08560). The data set can be described thus: SPR. (In SPR one partner is held on a chip, and binding of the other changes the refractive index at the surface.)

Sequence of UniProt O08604 (O08604 29-227): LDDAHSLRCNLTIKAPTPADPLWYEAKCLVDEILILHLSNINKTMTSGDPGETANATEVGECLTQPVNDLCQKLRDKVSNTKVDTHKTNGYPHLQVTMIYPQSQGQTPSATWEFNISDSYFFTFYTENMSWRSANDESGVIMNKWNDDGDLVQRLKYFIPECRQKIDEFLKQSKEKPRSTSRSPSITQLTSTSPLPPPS
Sequence of UniProt O08603 (O08603 29-229): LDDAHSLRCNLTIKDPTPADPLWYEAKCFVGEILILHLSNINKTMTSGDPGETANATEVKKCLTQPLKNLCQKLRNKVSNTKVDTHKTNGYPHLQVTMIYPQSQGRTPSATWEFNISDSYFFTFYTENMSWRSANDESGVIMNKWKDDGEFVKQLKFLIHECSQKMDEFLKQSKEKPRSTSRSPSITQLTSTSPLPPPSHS
Sequence of UniProt Q9JI58 (Q9JI58 29-225, stated change not applied): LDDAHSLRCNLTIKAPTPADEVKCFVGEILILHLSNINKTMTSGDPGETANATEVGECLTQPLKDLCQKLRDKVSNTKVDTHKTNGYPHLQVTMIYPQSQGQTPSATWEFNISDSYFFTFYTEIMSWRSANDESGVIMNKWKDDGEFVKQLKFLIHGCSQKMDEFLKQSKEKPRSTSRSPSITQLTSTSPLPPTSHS

m152 (from UniProt Q83156): the results for the Kd with RAE-1γ (Mus musculus), with RAE-1β (Mus musculus) and with RAE-1δ (Mus musculus) were 1000 nM, 3000 nM and 30 µM, respectively.

On to LIR1 (from UniProt Q8NHL6), for which the Kd in data set [1] was 10 nM.

What is called Kd is a measure of binding affinity in units of concentration.
